Data as given in the supplement of paper PMC9732359.
± gives the uncertainty stated by the source.

Experiment: protein stability index of a GFP-peptide fusion (yeast GPS) (PSI 1-4); higher = more stable; sorted into four equal gates, so the index is relative within each strain
Procedure, shortened: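 Tiled yeast protein peptides of 17 residues were each joined downstream of GFP, on plasmids that also express Cherry. The pooled library was maintained in yeast, and mid-log cultures in leucine-free medium were sorted into four equal gates on the GFP/Cherry ratio. Plasmids from every gate were amplified by PCR and sequenced on Illumina, with barcodes linking reads to strains. The protein stability index of a peptide is its gate-number-weighted read frequency summed over the gates.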

Sequence | protein stability index (doa10∆) | protein stability index (pdr5∆) | protein stability index (san1∆) | protein stability index (ubr1∆)
EQLSPQDVLQMLGRAGR [BRR2] | 3.14 ± 0.27 | 3.17 ± 0.18 | 3.48 ± 0.15 | 3.36 ± 0.12
EQQLFEIFAFGNIKDLP [CSN9] | 2.88 ± 0.076 | 2.97 ± 0.06 | 2.96 ± 0.035 | 2.86 ± 0.035
EQTTGGNNKDLKNTMQY [RPB4] | 3.24 ± 0.11 | 3.09 ± 0.082 | 2.65 ± 0.17 | 3.18 ± 0.19
EQWLRQFEVSDDEKNDK [SNF2] | 3.41 ± 0.065 | 3.21 ± 0.059 | 3.17 ± 0.053 | 3.09 ± 0.046
ERGLKVKEYQLRDRNFS [RPL11A] |  | 2.63 ± 0.2 |  | 
ERGQKVKNVKNSDLEFN [ARP9] | 3 ± 0.18 | 1.96 ± 0.09 | 2.17 ± 0.18 | 1.25 ± 0.072
ERIVVSYEYYNIKHKHT [SMC2] | 1.63 ± 0.047 | 1.86 ± 0.064 | 1.74 ± 0.11 | 1.87 ± 0.049
ERLAKVNEMNDQLAQEL [NNF1] | 3 ± 0.22 | 3.42 ± 0.17 | 3.28 ± 0.12 | 2.85 ± 0.18
ERLQLLEDVVGAKSFEV [SMC3] | 3.14 ± 0.21 |  |  | 
ERNAAYQKEYETAERNI [RPL7A] | 2.71 ± 0.12 | 2.61 ± 0.1 | 2.48 ± 0.095 | 2.62 ± 0.18
ERRVLLSAPLSKELRAQ [RPL26B] | 2.87 ± 0.07 | 2.9 ± 0.047 | 2.89 ± 0.055 | 2.79 ± 0.043
ERSELLRLFNAPDSEYL [SNF2] | 3.02 ± 0.044 | 2.8 ± 0.051 | 2.87 ± 0.045 | 2.77 ± 0.045
ERSSKRLAKKPSMKKIK [SIR3] | 3.18 ± 0.08 | 3.12 ± 0.084 | 3.06 ± 0.057 | 3.06 ± 0.079
ERVQSDENKDDELVKLL [SRP68] | 3.52 ± 0.17 | 3.42 ± 0.12 |  | 2.96 ± 0.23
ESDETTTDNNNSGNSNS [RPT1] | 3.12 ± 0.094 | 3.11 ± 0.098 | 2.66 ± 0.22 | 3.13 ± 0.051
ESEYREFESELKNVEET [ESC2] | 3.54 ± 0.25 | 3.47 ± 0.2 | 3.2 ± 0.18 | 3.31 ± 0.15
ESFKGLQPFWFRVNNAS [ECM29] | 2.05 ± 0.13 | 1.92 ± 0.11 |  | 2.09 ± 0.15
ESINNVVDQLWSEISNE [RPN2] | 2.77 ± 0.065 | 2.94 ± 0.053 | 2.83 ± 0.096 | 2.63 ± 0.041
ESKDSIQDLIVKLKQQK [SMC3] | 3.35 ± 0.1 | 3.12 ± 0.13 | 3.09 ± 0.14 | 3.35 ± 0.15
ESKMRQQEAKYRNNEPA [YDL088C/ASM4] | 3.13 ± 0.074 | 3.12 ± 0.063 | 2.84 ± 0.075 | 2.88 ± 0.059
ESLKKSPIFEVLSDDAK [ARP9] | 3.01 ± 0.072 | 3.15 ± 0.079 | 3.06 ± 0.073 | 3.32 ± 0.058
ESMDFLVLADAFDIELS [YCS4] | 2.32 ± 0.039 | 2.82 ± 0.043 | 2.64 ± 0.055 | 2.64 ± 0.039
ESPNYCNALIHIKFSAG [SRB4] | 1.66 ± 0.042 | 1.83 ± 0.039 | 1.93 ± 0.069 | 2.04 ± 0.034
ESQPKQTGTRRNSKLLN [MCD1] | 3.29 ± 0.099 | 3.16 ± 0.12 | 3.19 ± 0.079 | 3.12 ± 0.076
ESSNEAKKTIQNPLNKS [SIR4] | 3.12 ± 0.071 | 2.76 ± 0.059 | 2.95 ± 0.047 | 3.11 ± 0.05
ESVIEQIVKYARKGLTP [RPS13] | 3.13 ± 0.058 | 2.94 ± 0.073 | 2.76 ± 0.052 | 2.81 ± 0.044

Sequence | protein stability index (doa10∆) | protein stability index (pdr5∆) | protein stability index (san1∆) | protein stability index (ubr1∆)
ETAERNIIQAKRDAKAA [RPL7A] |  | 2.06 ± 0.21 | 1.93 ± 0.16 | 
ETEFPPFREFLQVLIDQ [ECM29] | 3.46 ± 0.19 | 3.45 ± 0.16 | 3.2 ± 0.095 | 3.27 ± 0.12
ETISAIEHPMTSAIEVL [RPN1] | 1.49 ± 0.048 | 1.72 ± 0.042 | 1.76 ± 0.071 | 1.8 ± 0.044
ETITTKRVPNPNFLGNC [SWP82] | 2.68 ± 0.054 | 2.58 ± 0.047 | 2.18 ± 0.05 | 2.32 ± 0.048
ETLEHNPVALEQKLVDL [BRR2] | 2.15 ± 0.092 | 2.79 ± 0.077 | 2.43 ± 0.074 | 2.35 ± 0.11
ETLSIFTNVPLNLEQVT [YJL039C/NUP192] | 2.33 ± 0.044 | 2.53 ± 0.049 | 2.33 ± 0.055 | 2.42 ± 0.044
ETSSDGSKSDGSAATSG [RPN1] | 3.39 ± 0.053 | 3.4 ± 0.055 | 3.62 ± 0.048 | 3.3 ± 0.036
ETTLGEMAEKIDFTLLN [PRP8] | 3.12 ± 0.093 | 3.17 ± 0.1 | 3.19 ± 0.098 | 2.71 ± 0.082
ETVPDNVKTSVSQLYRI [RPO31] | 2.92 ± 0.1 | 3.16 ± 0.13 | 3.21 ± 0.078 | 3.2 ± 0.069
EVFSRPEWMILTCLPVP [RPO21] | 1.42 ± 0.12 | 1.48 ± 0.12 | 1.51 ± 0.14 | 1.67 ± 0.063
EVILVDPQHKAIRRDAR [RPL15A] | 2.87 ± 0.088 | 3.15 ± 0.13 | 2.78 ± 0.28 | 2.97 ± 0.17
EVINKEIENATKDIFPL [RPS1A] | 3.25 ± 0.29 | 2.74 ± 0.19 | 2.9 ± 0.13 | 3.16 ± 0.082
EVNKSELYLTAELSEIW [SIR3] |  | 2.86 ± 0.29 |  | 3.24 ± 0.21
EVTFKNANIFSSVKCFG [FAS1] | 2.92 ± 0.046 | 2.81 ± 0.058 | 2.84 ± 0.063 | 3.06 ± 0.052
EWQDIIHQREQELQIKR [CSE2] |  | 3.5 ± 0.17 | 3.29 ± 0.26 | 3.13 ± 0.23
EWYLSHLCSGILSSVNR [SRB8] | 1.41 ± 0.076 | 1.55 ± 0.079 | 1.25 ± 0.095 | 1.63 ± 0.044
EYALPKTYNKLHYCVSC [RPS26A] | 1.24 ± 0.069 | 1.42 ± 0.055 | 1.34 ± 0.12 | 1.41 ± 0.04
EYDTPALFFDPSLNPIP [PRP8] | 2.82 ± 0.056 | 2.87 ± 0.036 | 2.65 ± 0.048 | 2.69 ± 0.036
EYKLRSLTLSFIRHVAK [ECM29] | 2.49 ± 0.068 | 2.54 ± 0.062 | 2.77 ± 0.049 | 2.81 ± 0.046
EYYVMMDFANLWVFQAF [SRB8] | 2.37 ± 0.098 | 2.37 ± 0.082 | 2.63 ± 0.093 | 2.64 ± 0.057
FAKEHNATVNLAMEAIL [YJR042W/NUP85] | 2.93 ± 0.094 | 2.66 ± 0.1 | 2.71 ± 0.098 | 2.63 ± 0.092
FARLSRLLSLWEVFQMA [RPC82] | 1.9 ± 0.11 | 1.97 ± 0.096 | 2.86 ± 0.13 | 2.08 ± 0.051
FASIPVSNSISRLGEEN [SNU114] | 2.31 ± 0.058 | 2.63 ± 0.051 | 1.81 ± 0.081 | 2.48 ± 0.059
FCPGEIVGKSNVLVTMP [YMR129W/POM152] | 2.69 ± 0.12 | 2.3 ± 0.1 | 1.82 ± 0.27 | 2.51 ± 0.085
FDHNDKKLSINSAARNI [PRE7] | 2.72 ± 0.059 | 2.47 ± 0.059 | 2.4 ± 0.055 | 2.83 ± 0.065
FDKVEVQVRSVMDPITS [DIS3] | 2.78 ± 0.07 | 2.8 ± 0.066 | 3.21 ± 0.053 | 3.04 ± 0.064
